Tested on: K4 kissing-loop RNA reporter
Test: apparent KD of K4 kissing-loop reporter; higher = weaker reporter binding
Details: Eterna round: R107
Experimental: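 RNA-MaP round R107: designed RNA switches with theophylline, tryptophan, arginine or FMN aptamers are transcribed on-chip within common flanks. They are titrated with a labelled K4 kissing-loop RNA reporter in RNA-MaP buffer (100 mM Tris pH 7.5, 80 mM KCl, 4 mM MgCl2), without ligand or with the indicated ligand. Median apparent KD per design.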

[1] = input ligand: theophylline 20 uM
[2] = input ligand: tryptophan 2.4 mM
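Further: bound reporter read as fluorescence of individual clusters on recovered sequencing chips by microscopy, with normalized cluster intensities fitted with a binding model.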

Row | Sequence | apparent KD of K4 kissing-loop reporter (input ligand: FMN 200 uM) | apparent KD of K4 kissing-loop reporter (input ligand: arginine 13.2 mM) | apparent KD of K4 kissing-loop reporter (input ligand: none) | apparent KD of K4 kissing-loop reporter [1] | apparent KD of K4 kissing-loop reporter [2]
1 | GGUGUUGUUUGUGCUGUUUUCCUCGUUCCUCGAGGACCGGUACGGCCGCCACUCGAGUGAUGUUUGGGUAGCGAUCCCUGUUAGU [Bdazzled - #8 Exc. Tryptophan A] | 624 nM | 504 nM | 675 nM | 649 nM | 593 nM
2 | GGUGUUGUUUGUGCUGUUUUCUUCGUUUCUCGAGGACCGGUACGGCCGCCACUCGAGUGAUGUUUGGGUAGCGAUCUUUGUUAGU [Bdazzled - #4- Exc. Tryptophan A] | 430 nM | 256 nM | 345 nM | 339 nM | 385 nM
3 | GGUUAAAGCACCCGGAGUGAUGUUCCGGAUACCAGCAAACCAACUUGCCCUUGGCAGCCGUAUAGCGUCCGGUGGGCCGAGCAUA [Raarce] | 94.9 nM | 94.3 nM | 98.4 nM | 97.6 nM | 92.7 nM
4 | GUAGACAGACUGCAAGCCUAGUCUACAGACUAGGAUAUCAGGAAACUGAGAAGGAGUCUAGUUGCAGUGAUGUUGCAAGAAUAAU [KL-SSFMN-A24] | 120 nM | 135 nM | 123 nM | 140 nM | 99.8 nM
5 | GUAUAUUAGGGAGACCUAAUAUAAAUAGAAGGAGCGUAGGAAACUACAGGUAGGUCGCUAAAUAUACAGUGAUGUUGUAUAAUGG [arg a same] | 183 nM | 147 nM | 172 nM | 195 nM | 141 nM
6 | GUAUCGCUAGGAGGAUAUUUCGUUUUUCAUAGCAAUGGCUGUGCGGAGUGAUGUUCCGAUUUACCGGAAGAAGGCCUAGUGAUAC [FMN B 27] | 107 nM | 165 nM | 180 nM | 158 nM | 161 nM
7 | GUCAUGCGUUCAGGAUAUGGACCAAUUUAUAUUGCUUAUGCUGUGCCCUGUAUGGCAGUGAUGUUGCCAGAAGGGAGGGCAUGCA [Erbionvean] | 116 nM | 88 nM | 96.6 nM | 111 nM | 102 nM
8 | GUCCACACUGCAGGAUAUGGAGGUAUAGCGAGGGAGUGUGGAAGCACACCUCUGGCAGUGAUGUUGCCAGAAGGGCGGUGCGGCG [Masodionra] | 118 nM | 103 nM | 119 nM | 90.3 nM | 93.2 nM
9 | GUCCAUGUCCUCAUUCGUGCACUGGACACCAAGGAUAUGUUUAUGGACAGAAGGUGGUUGGGUCAGUGAUGUUGAUAUAAUUAGU [theeternabot_exclusion_KL_FMN_A_24] | 208 nM | 276 nM | 278 nM | 406 nM | 194 nM
10 | GUCGGCCGCGCGCAAGCGCGGCCGGCCGAUACCAGCGCGCCGGUGCGCCCUUGGCAGCGGCACCGAGUGAUGUUCGGUCAGACGA [#2 Same State - Theophylline A Attempt #6 (HarryS)] | 407 nM | 161 nM | 308 nM | 113 nM | 234 nM
11 | GUCUGCGUCUCGGCCGCCACUCACUAGUGAUGUUAGUAAGGAGCGACUAGAGAAGUCCAGUUGAUGAGGACCGGGAGACGCAAAA [Exclusion Tryptophan B GF4] | 114 nM | 84.3 nM | 95.7 nM | 85.8 nM | 169 nM
12 | GUGAAGGAGCUGCAGUGAUGUUGCAGAGACUAGGAUAUCAGGAAACUGAGAAGGAGUCAACUCCUUCACCUAGACAACAUCACUA [[F]''-[K1]-[K2]-[F1]-[F2]-[F2]'-[F1]'-[K]'_Design2] | 148 nM | 151 nM | 128 nM | 269 nM | 187 nM
13 | GUGCAGUGAUGUUGCACGAGGAAAGACGAUACCAGCCGUAAAUAAGGCCCUUGGCAGCGUGGGCUAGCACAAAAUAUGCUAGUCU [Laleingeat] | 97.9 nM | 99.6 nM | 107 nM | 68.4 nM | 117 nM
14 | GUGCGCGCGGCGGCCGCCACUCGCAUGAGAGUGAUGUUCUCACCGUGACCGCAAGGUCGCGGUGUGAGGACCGGGCCGGGCUGCG [#2 Same State - Tryptophan B Attempt #25 (HarryS)] | 74.3 nM | 93.5 nM | 217 nM | 464 nM | 297 nM
15 | GUGCGCGCGGCGGCCGCCACUCGCAUGAGAGUGAUGUUCUCGGGACUGACGGAAGUCAGUCAUGGGAGGACCGGGCCGGGCUGCG [#2 Same State - Tryptophan B Attempt #13 (HarryS)] | 360 nM | 958 nM | 208 nM | 1140 nM | 521 nM
16 | GUGCGCGGUGCGGCCGCCACUCGCAUGAGAGUGAUGUUCUCGGGACGGACGGAAGUCCGUCAUGUGAGGACCGGGCAUGGCUGCG [#2 Same State - Tryptophan B Attempt #10 (HarryS)] | 894 nM | 344 nM | 416 nM | 497 nM | 453 nM
17 | GUGCGUAAGUGAUGUUUACGUCAGCUCCGCAAGGAUAUCCUGAUUAGGAGAAGGUGCGGGAACUAAAGACGCUCGUUCUAGCAGG [theeternabot_exclusion_KL_FMN_A_33] | 146 nM | 182 nM | 205 nM | 168 nM | 162 nM
18 | GUGGUACAGGCGGCCGCCACUAGUGAUGUUAGUGUUAGAAGAUAUAGUAUAUAUCGGCAUUUGUUUAGGACCGGGCCUGGUGGAG [aqzacmullin] | 209 nM | 166 nM | 184 nM | 189 nM | 182 nM
19 | GUUACGCAUGGAAGGAGCGCUCUCAUAUUUAAUAACACAGUGAUGUUGUGAAUUUAUAUAAAGCAGGUAGGUCGCCAUGUGUAAC [Ex Arginine B K4 6] | 336 nM | 281 nM | 326 nM | 276 nM | 258 nM
20 | GUUACGCAUGGAAGGAGCGCUCUCCGGCUUAUUAACACAGUGAUGUUGUGAUUUUGCCGAAAGCAGGUAGGUCGCCAUGUGUAAC [Ex Arginine B K4 11] | 487 nM | 363 nM | 451 nM | 447 nM | 451 nM
21 | GUUCGAUUCUGAGUGAUGUUGAGAAUUGAGAAGGAUAUCCAGAAAAGGAGAAGGUCUACGUCAUGCGCCUCGAUUUGCUAGCUGC [theeternabot_exclusion_KL_FMN_A_50] | 835 nM | 567 nM | 630 nM | 515 nM | 609 nM
